B1: Androgen receptor, residues 557 to 632; numbered along this chain, P10275 (parent)
chain: QKTCLICGDEASGCHYGALTCGSCKVFFKRAAEGKQKYLCASRNDCTIDKFRRKNCPSCRLRKCYEAGMTLGARKL

Variants of: B1
Assay: abundance fitness (aPCA) (normalised: wild type 0, dead -1); higher = more abundant; growth selection in yeast, the domain comes from the species named
Settings: Homo sapiens

Abundance fitness, by site and new letter:
A31: G -0.086, R -0.486, D -0.503, F -0.214
C40: W -1.16, G -0.891, S -0.713, P -0.756, D -1.14, T -0.554, I -0.948, K -0.632, V -0.693, E -0.576, Q -0.482, Y -1.13, R -0.798
Q36: D 0.048, V 0.065, L -0.075, N -0.134, H -0.01, C -0.2, Y -0.189, W -0.251, S -0.094, G 0.011, K 0.013, R -0.144, E 0.031, F -0.156, M -0.084, T -0.173, P -0.006, A -0.019, I -0.197
A41: N -0.165, W -0.187, E -0.079, K -0.368, F -0.113, D 0.041, G -0.091, M -0.186, Q -0.081, H -0.279, T -0.056, L -0.047, Y 0.044, R -0.051, V 0.01, C -0.18, P -0.12, I -0.275, S -0.041
K35: E 0.084, N -0.093, D -0.118, I -0.09, R 0.004, T 0.039, P 0.074, H -0.044, C -0.007, G -0.031, L -0.135, Q 0.007, A -0.093, W -0.213, Y -0.034, M 0.018, S -0.031
A32: V -0.016, D 0.007, P -0.591, M -0.019, Q 0.034, T 0.114, S -0.052, L -0.167, C -0.023, G -0.001, W -0.088, R -0.155, I -0.011, F -0.197, E 0.036, H -0.233, Y -0.145
D49: I -0.283, E -0.066, R -0.342, C -0.538, Y -0.634, A -0.283, S -0.139, N -0.188, V -0.512, T -0.165, W -0.402, P -0.482, F -0.613, L -0.502, H -0.382, G -0.197, M -0.448, K -0.317
I48: F -0.226, N -0.199, V -0.02, M -0.154, Y -0.177, Q -0.203, C -0.585, D -0.331, H -0.482, P -0.25, L -0.204, S -0.251, W -0.37, G -0.362, E -0.348
R30: V -0.066, S -0.016, L 0.099, K 0.103, T 0.01, I -0.067, N 0.014, W -0.114, Q -0.029, Y -0.191, P -0.395
L39: P -0.086, V 0.029, H -0.033, Q 0.011, K 0.094, C -0.069, S -0.128, R -0.006, E 0.054, M 0.047, D -0.068, W -0.064, N -0.008, G -0.009, T -0.032, Y 0.045
K37: A 0.038, M -0.131, D -0.009, R -0.054, H 0.168, G -0.08, S -0.086, N 0.073, F -0.331, I -0.091, W -0.168, C -0.185, Q 0.079, V -0.058, L -0.126, P 0.006, Y -0.178, T 0.01
